Assay [1] has as its target previously unrecognized receptor on the RBC (receptor for PfRH5) (human (endogenous in erythrocytes)). The assay is described as follows: other fluorescence titration; […] fit for identical independent binding sites.
Assay [2] shares this target. As to the kind of experiment: other fluorescence titration; competition: 2 µM rhodamine-rRH5 with 25 µl packed RBC ghosts in PBS and increasing unlabeled rRH5 (0.1 to 400 µM), 2 h at RT, bound labeled rRH5 by spectrofluorimetry.

For the substance “rhodamine-labeled rRH5 (domain or fragment)”, the dissociation constant Kd (in general, the concentration at which binding is half-saturated) in assay [1] was 12 µM.

“recombinant PfRH5 protein (rRH5), 143-aa fragment Asn-31 to Val-174, GST fusion (domain or fragment)”: in assay [2], the IC50 (in general, the concentration that gives 50% inhibition) is 50 µM.

For the origin of these results see publication PMC2553180.
